# Test results taken from publication PMC2670981, “Divergence of Catalytic Mechanism within a Glycosidase Family Provides Insight into Evolution of Carbohydrate Metabolism by Human Gut Flora” (Chemistry & Biology, 2008).
# System: O=[N+]([O-])c1ccc(O[C@H]2O[C@H](CO)[C@@H](O)[C@H](O)[C@H]2O)c([N+](=O)[O-])c1
# Experiment: purified protein
# Settings: Ca2+
substance,measurement,value
BtGH97a (Bacteroides thetaiotaomicron VPI-5482),Km,140 ± 10 µM
same,kcat,280 ± 7 s⁻¹
same,kcat/Km,2e+06 M⁻¹ s⁻¹
